According to the RNAGym collection of RNA variant scans (doi:10.1093/molbev/msab373):

B1: Azoarcus group I ribozyme (parent)
chain: GUGCCUUGCGCCGGGAAACCACGCAAGGGAUGGUGUCAAAUUCGGCGAAACCUAAGCGCCCGCCCGGGCGUAUGGCAACGCCGAGCCAAGCUUCGGCGCCUGCGCCGAUGAAGGUGUAGAGACUAGACGGCACCCACCUAAGGCAAACGCUAUGGUGAAGGCAUAGUCCAGGGAGUGGCGAAAGUCACACAAACCGG

Variants of: B1
Assay: reverse-splicing fitness (ratio to wild type); higher = more active; in vitro selection; Mg2+ level not given
Method in brief: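 An in vitro group I ribozyme library with randomized positions was T7-transcribed and gel-purified. In triplicate, 10 pmol RNA in EPPS pH 7.5 was reacted with 50 pmoles of a 30-nt RNA substrate for 1 h at 37 °C across several added MgCl2 levels (1–48 mM), then stopped with EDTA. Products were reverse transcribed from a substrate-complementary primer, PCR-amplified and sequenced (HiSeq 4000). Fitness is a variant's read proportion after selection over that before, normalised to wild type.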

Q: Which reverse-splicing fitness does the source give for C82U A111U A145G C150G U176A here?
A: 0.0103

Q: For C82U A111U A145G C150G U176C, which reverse-splicing fitness is on record?
A: 0.0196

Q: For C82U A111U A145G C150G U176G, which reverse-splicing fitness is on record?
A: 0.00676

Q: With C82U A111U A145G C150U as the variant, how does the reverse-splicing fitness read?
A: 0.235

Q: Which reverse-splicing fitness does the source give for C82U A111U A145G C150U C169A here?
A: 0.0102

Q: Which reverse-splicing fitness does the source give for C82U A111U A145G C150U C169A U176A here?
A: 0.0156

Q: Which reverse-splicing fitness does the source give for C82U A111U A145G C150U C169A U176C here?
A: 0.0159

Q: For C82U A111U A145G C150U C169A U176G, which reverse-splicing fitness is on record?
A: 0.00684

Q: With C82U A111U A145G C150U C169G as the variant, how does the reverse-splicing fitness read?
A: 0.00883

Q: For C82U A111U A145G C150U C169G U176A, which reverse-splicing fitness is on record?
A: 0.0133

Q: Which reverse-splicing fitness does the source give for C82U A111U A145G C150U C169G U176C here?
A: 0.0174

Q: Which reverse-splicing fitness does the source give for C82U A111U A145G C150U C169G U176G here?
A: 0.00598

Q: With C82U A111U A145G C150U C169U as the variant, how does the reverse-splicing fitness read?
A: 0.0113

Q: With C82U A111U A145G C150U C169U U176A as the variant, how does the reverse-splicing fitness read?
A: 0.0149

Q: For C82U A111U A145G C150U C169U U176C, which reverse-splicing fitness is on record?
A: 0.013

Q: For C82U A111U A145G C150U C169U U176G, which reverse-splicing fitness is on record?
A: 0.00571

Q: With C82U A111U A145G C150U U176A as the variant, how does the reverse-splicing fitness read?
A: 0.0765

Q: With C82U A111U A145G C150U U176C as the variant, how does the reverse-splicing fitness read?
A: 0.12

Q: Which reverse-splicing fitness does the source give for C82U A111U A145G C150U U176G here?
A: 0.0188

Q: Which reverse-splicing fitness does the source give for C82U A111U A145G C169A here?
A: 0.00999

Q: For C82U A111U A145G C169A U176A, which reverse-splicing fitness is on record?
A: 0.0191

Q: With C82U A111U A145G C169A U176C as the variant, how does the reverse-splicing fitness read?
A: 0.0257

Q: With C82U A111U A145G C169A U176G as the variant, how does the reverse-splicing fitness read?
A: 0.00582

Q: For C82U A111U A145G C169G, which reverse-splicing fitness is on record?
A: 0.00856

Q: For C82U A111U A145G C169G U176A, which reverse-splicing fitness is on record?
A: 0.0207

Q: With C82U A111U A145G C169G U176C as the variant, how does the reverse-splicing fitness read?
A: 0.027

Q: With C82U A111U A145G C169G U176G as the variant, how does the reverse-splicing fitness read?
A: 0.00528

Q: With C82U A111U A145G C169U as the variant, how does the reverse-splicing fitness read?
A: 0.0114

Q: With C82U A111U A145G C169U U176A as the variant, how does the reverse-splicing fitness read?
A: 0.0135

Q: For C82U A111U A145G C169U U176C, which reverse-splicing fitness is on record?
A: 0.0145

Q: For C82U A111U A145G C169U U176G, which reverse-splicing fitness is on record?
A: 0.0055

Q: For C82U A111U A145G U176A, which reverse-splicing fitness is on record?
A: 0.107

Q: For C82U A111U A145G U176C, which reverse-splicing fitness is on record?
A: 0.159

Q: With C82U A111U A145G U176G as the variant, how does the reverse-splicing fitness read?
A: 0.0229

Q: Which reverse-splicing fitness does the source give for C82U A111U A145U here?
A: 0.329

Q: Which reverse-splicing fitness does the source give for C82U A111U A145U C150A here?
A: 0.0273

Q: With C82U A111U A145U C150A C169A as the variant, how does the reverse-splicing fitness read?
A: 0.0089

Q: Which reverse-splicing fitness does the source give for C82U A111U A145U C150A C169A U176A here?
A: 0.0123

Q: With C82U A111U A145U C150A C169A U176C as the variant, how does the reverse-splicing fitness read?
A: 0.00929

Q: For C82U A111U A145U C150A C169A U176G, which reverse-splicing fitness is on record?
A: 0.00735

Q: With C82U A111U A145U C150A C169G as the variant, how does the reverse-splicing fitness read?
A: 0.00727

Q: With C82U A111U A145U C150A C169G U176A as the variant, how does the reverse-splicing fitness read?
A: 0.011

Q: For C82U A111U A145U C150A C169G U176C, which reverse-splicing fitness is on record?
A: 0.0121

Q: For C82U A111U A145U C150A C169G U176G, which reverse-splicing fitness is on record?
A: 0.00594

Q: With C82U A111U A145U C150A C169U as the variant, how does the reverse-splicing fitness read?
A: 0.0106

Q: Which reverse-splicing fitness does the source give for C82U A111U A145U C150A C169U U176A here?
A: 0.0133

Q: Which reverse-splicing fitness does the source give for C82U A111U A145U C150A C169U U176C here?
A: 0.0118

Q: Which reverse-splicing fitness does the source give for C82U A111U A145U C150A C169U U176G here?
A: 0.00593

Q: Which reverse-splicing fitness does the source give for C82U A111U A145U C150A U176A here?
A: 0.0154

Q: With C82U A111U A145U C150A U176C as the variant, how does the reverse-splicing fitness read?
A: 0.022

Q: With C82U A111U A145U C150A U176G as the variant, how does the reverse-splicing fitness read?
A: 0.00782

Q: With C82U A111U A145U C150G as the variant, how does the reverse-splicing fitness read?
A: 0.028

Q: With C82U A111U A145U C150G C169A as the variant, how does the reverse-splicing fitness read?
A: 0.00958

Q: For C82U A111U A145U C150G C169A U176A, which reverse-splicing fitness is on record?
A: 0.0112

Q: With C82U A111U A145U C150G C169A U176C as the variant, how does the reverse-splicing fitness read?
A: 0.00962

Q: For C82U A111U A145U C150G C169A U176G, which reverse-splicing fitness is on record?
A: 0.00684

Q: Which reverse-splicing fitness does the source give for C82U A111U A145U C150G C169G here?
A: 0.0071

Q: For C82U A111U A145U C150G C169G U176A, which reverse-splicing fitness is on record?
A: 0.00698

Q: With C82U A111U A145U C150G C169G U176C as the variant, how does the reverse-splicing fitness read?
A: 0.00578

Q: With C82U A111U A145U C150G C169G U176G as the variant, how does the reverse-splicing fitness read?
A: 0.00587

Q: With C82U A111U A145U C150G C169U as the variant, how does the reverse-splicing fitness read?
A: 0.00858

Q: With C82U A111U A145U C150G C169U U176A as the variant, how does the reverse-splicing fitness read?
A: 0.00893

Q: With C82U A111U A145U C150G C169U U176C as the variant, how does the reverse-splicing fitness read?
A: 0.0107

Q: For C82U A111U A145U C150G C169U U176G, which reverse-splicing fitness is on record?
A: 0.00616

Q: With C82U A111U A145U C150G U176A as the variant, how does the reverse-splicing fitness read?
A: 0.0103

Q: For C82U A111U A145U C150G U176C, which reverse-splicing fitness is on record?
A: 0.019

Q: Which reverse-splicing fitness does the source give for C82U A111U A145U C150G U176G here?
A: 0.00449

Q: With C82U A111U A145U C150U as the variant, how does the reverse-splicing fitness read?
A: 0.183

Q: With C82U A111U A145U C150U C169A as the variant, how does the reverse-splicing fitness read?
A: 0.00818

Q: For C82U A111U A145U C150U C169A U176A, which reverse-splicing fitness is on record?
A: 0.0113

Q: With C82U A111U A145U C150U C169A U176C as the variant, how does the reverse-splicing fitness read?
A: 0.00869

Q: Which reverse-splicing fitness does the source give for C82U A111U A145U C150U C169A U176G here?
A: 0.00627

Q: With C82U A111U A145U C150U C169G as the variant, how does the reverse-splicing fitness read?
A: 0.00898

Q: Which reverse-splicing fitness does the source give for C82U A111U A145U C150U C169G U176A here?
A: 0.0107

Q: For C82U A111U A145U C150U C169G U176C, which reverse-splicing fitness is on record?
A: 0.0127

Q: For C82U A111U A145U C150U C169G U176G, which reverse-splicing fitness is on record?
A: 0.00583

Q: With C82U A111U A145U C150U C169U as the variant, how does the reverse-splicing fitness read?
A: 0.0104

Q: For C82U A111U A145U C150U C169U U176A, which reverse-splicing fitness is on record?
A: 0.0148

Q: With C82U A111U A145U C150U C169U U176C as the variant, how does the reverse-splicing fitness read?
A: 0.0115

Q: For C82U A111U A145U C150U C169U U176G, which reverse-splicing fitness is on record?
A: 0.00582

Q: For C82U A111U A145U C150U U176A, which reverse-splicing fitness is on record?
A: 0.0674

Q: With C82U A111U A145U C150U U176C as the variant, how does the reverse-splicing fitness read?
A: 0.103

Q: For C82U A111U A145U C150U U176G, which reverse-splicing fitness is on record?
A: 0.0202
